Assay results taken from the supplement of paper PMC10567573.

B1: CCDC6 (parent)
chain: ASVTIQARAEQEEEFISNTLFKKI
B2: ZNF449 (parent)
chain: TLHQRTHTEERPFKCNYCGKSFRQ

Variants of: B1
Assay: protein stability index of a GFP-peptide fusion (GPS, HEK-293T) (PSI 1-6); higher = more stable
Settings: c terminus: a fixed tail appended
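Further: lentivirally expressed fusions sorted by FACS into six bins by GFP to DsRed ratio, PSI derived from sequencing read proportions per bin multiplied by bin number.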

Protein stability index of substitutions, site by site:
E10: Q 3.22 | R 2.95 | Y 2.03 | V 2.27 | K 3.15 | S 3.14 | I 2.39 | N 3.1 | M 2.95 | T 3.22 | F 2.29 | C 2.1 | L 2.15 | W 1.54 | D 3.4 | A 3.06 | P 2.83 | G 2.38 | H 3.25
T19: S 3.47 | A 3.49 | R 3.84 | Y 2.96 | F 2.72 | P 4 | I 2.94 | K 3.72 | C 3.25 | M 3.03 | D 3.77 | W 3.13 | L 2.82 | H 3.36 | V 3.21 | E 3.81 | G 4.04 | N 3.12 | Q 3.86
K23: L 2.11 | W 2.23 | H 3.08 | Q 3.17 | N 3.37 | I 2.52 | S 3.04 | D 3.21 | F 2.01 | R 3.28 | C 2.96 | V 2.73 | A 3.23 | E 3.89 | P 3.19 | M 2.35 | G 3.21 | Y 1.98 | T 3.34
E12: Y 2.2 | G 2.94 | D 3.67 | P 3.03 | T 2.68 | I 1.69 | A 2.58 | M 1.9 | W 2.21 | Q 3.27 | K 3.17 | C 2.35 | F 2.12 | R 2.7 | N 3.06 | H 2.83 | S 2.95 | V 2.19 | L 2.07
I24: C 4.52 | W 3.59 | H 4.37 | Y 3.56 | M 3.83 | S 4.17 | D 4.85 | E 4.58 | N 4.71 | A 4.14 | G 4.48 | L 4.23 | V 3.71 | P 4.25 | T 4.76 | R 4.03 | Q 4.36 | K 4.8 | F 3.66
E14: A 3.13 | I 2.22 | N 2.95 | M 2.99 | L 1.89 | S 2.79 | Y 2.31 | P 3.01 | V 2.7 | W 1.81 | T 2.87 | C 2.08 | R 2.52 | G 3.02 | Q 2.99 | D 3.31 | F 1.87 | K 3.2 | H 2.7
A9: P 3.87 | G 3.67 | E 4.16 | R 3.61 | F 2.37 | S 3.79 | K 3.6 | C 3.23 | L 2.5 | V 2.91 | Q 4.09 | D 4.42 | T 3.68 | Y 2.72 | W 2.27 | H 3.17 | I 2.62 | M 3.08 | N 3.63
Q11: F 2.07 | Y 2.91 | S 3.75 | P 3.67 | R 2.83 | H 3.37 | I 2.39 | N 3.71 | M 2.29 | V 2.56 | T 3.4 | A 3.52 | W 2.07 | C 2.97 | L 2.97 | K 3.4 | G 3.49 | D 3.99 | E 4.13
S17: M 3.06 | V 3.18 | L 3.35 | H 3.58 | Y 2.9 | R 3.26 | I 2.85 | K 4.03 | T 4.27 | A 3.64 | C 2.8 | W 2.54 | N 3.59 | Q 3.77 | E 3.9 | P 3.92 | F 2.98 | G 3.5 | D 4.38
I16: S 4.25 | V 4.05 | M 3.82 | Q 4.66 | H 4.28 | P 4.35 | F 3.49 | E 4.53 | C 4.11 | G 4.43 | N 4.57 | A 3.84 | T 3.95 | K 4.53 | Y 3.42 | R 3.92 | D 4.34 | L 3.94 | W 2.92
N18: R 3.07 | P 3.96 | W 2.43 | E 4.09 | M 2.34 | Q 3.42 | L 2.56 | D 4.34 | H 3.41 | T 3.75 | K 3.87 | F 2.27 | C 2.79 | S 3.54 | G 3.6 | A 3.27 | V 1.5 | Y 2.07
L20: N 4.42 | T 4.64 | Q 4.62 | R 4.09 | S 4.68 | K 4.15 | E 4.51 | P 4.14 | W 2.91 | I 3.89 | F 3.46 | G 4.66 | V 3.82 | Y 3.69 | C 3.9 | H 4 | A 3.94 | D 4.76 | M 4.44
K22: Q 3.7 | T 2.86 | N 3.98 | L 2.19 | F 1.94 | D 3.49 | A 2.87 | E 3.74 | C 2.17 | P 4.13 | S 3.64 | G 3.49 | V 1.91 | H 3.5 | R 2.92 | M 1.74 | W 2.1 | Y 2.21
F21: H 3.88 | W 3.39 | A 4.66 | C 4.76 | M 4.46 | D 4.87 | I 3.58 | Q 5.01 | G 4.71 | L 4.78 | K 4.7 | R 4.54 | E 4.93 | T 4.49 | V 4.39 | P 4.52 | N 4.42 | S 4.37 | Y 3.72
F15: C 4.19 | K 4.13 | T 4.52 | D 4.68 | Q 4.46 | N 4.65 | H 3.72 | S 4.03 | A 4.49 | M 3.67 | V 4.52 | G 4.4 | L 3.73 | Y 3.78 | R 4.09 | W 2.98 | P 4.61 | I 4.18 | E 4.69
R8: S 4.05 | K 3.79 | Q 4.14 | V 3.31 | Y 3.21 | P 4 | W 3.27 | L 3.03 | N 3.69 | T 3.58 | M 3.12
E13: S 3.11 | Q 3.29 | T 3.08 | I 2.18 | D 3.54 | H 2.29 | L 2.38 | A 2.8 | N 3.16 | W 2.08 | F 2.23 | Y 2 | V 2.41 | K 3.71 | P 3.4 | G 3.39 | C 3.07 | M 2.58 | R 3.18

Variants of: B2
Assay: as above
Settings: c terminus: a fixed tail appended

Protein stability index of substitutions, site by site:
T1: L 2.04 | R 2.02 | Q 2.19 | D 2.46 | M 2.39 | I 2.21 | P 2.56 | W 2.01 | G 2.89 | K 3.28 | V 3.17 | C 3.64 | A 2.12 | H 2.66 | Y 2.01 | S 3.59 | F 2.08 | E 2.64 | N 2.87
L2: A 2.95 | C 3.15
